Experimental data: the supplement of paper PMC9170038

System: MS2 coat protein
Assay: apparent KD of MS2 coat protein; higher = weaker reporter binding
Conditions: Eterna round: R107; input ligand: arginine 13.2 mM
Procedure, shortened: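 Normalised binding curves from single clusters were fitted, and the median fit for each design is given as apparent KD. The clusters held designed RNA switches transcribed on-chip from Illumina sequencing clusters. These were titrated with SNAP-549-labelled MS2 coat protein (twofold steps from 0.7 or 1.5 nM to 3 µM, 0.8–1.5 h to 10–20 min per step) in 100 mM Tris-HCl pH 7.5, 80 mM KCl, 4 mM MgCl2, without or with constant ligand.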

| Sequence | apparent KD of MS2 coat protein [µM] |
| --- | --- |
| GCGUGUUAUAGUCAUCGUGAGCGUCCAUCCCGAGGACCGGUACGGCCGCCACUCGCCACAGGACAUGAGGAUCACCCAUGUUAUG [theeternabot_exclusion_MS2_Trp_A_3] | 0.00962 |
| ACAUGAGGAUCACCCAUGUGGCGACUUGAUACCAGACCCGCACUAGUCCCUUGGCAGCAACUACGUGUGGGACACCCAUGUGAAG [aszkullin] | 0.0175 |
| UGUAUGUGAUCUGAUACCAGAGUGAAUAACCUGAGGAUCACCCUGGUAAGGCGAAAGCCACUCCCUUGGCAGCAGAUCGCAUACU | 0.121 |
| UUGUUGUUUGGAAGGAGCGUGUAUGAUUAAGAACAUGAGGAUCACCCAUGUUGUAGGAUAGCACAGGUAGGUCGCCGGGUGGUGG [11.W] | 0.0188 |
| UUAUAAGUACCGGUCCUCAGAUCCUCAUGACGAGGACCGGUACGGCCGCCACUCGAAACAUGAGGAUCACCCAUGUAAUAAUAUU [Brourdmod07] | 0.016 |
| AUAAUAAUCAUGGGUGAAGGUCCUCGCAAACGAGGACCGGUACGGCCGCCACUCGAACAUGAGGAUCACCCAUGUGUGAGGACCU [M' - T' - T - MS2 - T'' Design 2] | 0.0249 |
| GGUGGCUGGAUUGAUACCAGCCACCACCGAUAGACCACAUGAGGAUCACCCAUGUUGGGUGGCCCUUGGCAGCAGUCCAGCUGCC [#1 Same State - Theophylline B Attempt #9 (HarryS)] | 0.0705 |
| UCGCACAUGAGGAUCACCCAUGUACUAGAUACCAGUGACGCGGUGCACCCUUGGCAGCUGGUGCUGAGUGAUGGUUCCCUCGGCA [Exclusion Theophylline A GF8] | 0.0535 |
| GCACUACAUGAGGAUCACCCAUGUGCAGAUACCAGAGGUGUAUGCCUCCCUUGGCAGCUGCGUCGCUCUGGCAGCUUGUGGGUUG [Same State Theophylline A GF18] | 0.0403 |
| ACAUGAGGGAUGGAUACCAGCGACAUGAGGAUCACCCAUGUAUGAGGAUCACCCAUGUUAUGCCCUUGGCAGCCACAAACAUGAG [UUYMULLIN] | 0.0248 |
| GCACCAGGUACGGAUACCAGACAUUGCCAAUUGGGUGAACAUGAGGAUCACCCAUGUUAAGUCCCUUGGCAGCCGUACCUGGUGC [ETB NP+V+V2 #6 Same Structure] | 0.0114 |
| ACAUGAGGAUCACCCAUGUGUGUAAAUCCUCGAGGACCGGUACGGCCGCCACUCGAUCGAGUGUAAGUUGAAUGUAACAUUCAAC [whbob_SS_trypto A_2s8] | 0.0426 |
| ACGUCCGGUUUACUCGUGGGCAUGGUCGAUACCAGUAUUUUAAUCUACCCUUGGCAGCGACAUGAGGAUCACCCAUGUGCGAAGA [XTheo A #21] | 0.0215 |
| AGUCUCAGUGGAAGGAGCGUCGCGACUGCUACAUGAGGAUCACCCAUGUCGCCUUGAGCGCGACAGGUAGGUCGCCACGGUAGGC [Erraraorle] | 0.0141 |
| UUUUACGCAAGUAAUUCCCGGGAACCGGAUACCAGCUCCUCCAACAGCCCUUGGCAGCCGACCACAUGAGGAUCACCCAUGUUUC [theeternabot_exclusion_MS2_Theo_A_28] | 0.012 |
| UAAUAAAUAAAUCCAAGGUGAAGGUCAGAUACCAGCCAGAUAACUGGCCCUUGGCAGCUGAAUAAGCUUGAGGAUCACCCAAGUA [TheoAS 26 #OpenEnded #MS2Late #AlternativeMS2] | 0.0275 |
| AUAACAUGAGGAUCACCCAUGUAAGCAGAUACCAGCUAGGAAACUAGCCCUUGGCAGCUGCAAUCCUCAUGUAUUGCAGCUGCAA [(M1)-(M2)-(T1)-(T2)-(M)'-(T)'_Design1] | 0.0215 |

| Sequence | apparent KD of MS2 coat protein [µM] |
| --- | --- |
| CCCAAUUUCCGAGAUAUGGGUCCAACUAAACGAGGACCGGUACGGCCGCCACUCGACUACAAACAUGAGGAUCACCCAUGUAAAG [theeternabot_exclusion_MS2_Trp_A_40] | 0.0176 |
| AACAUGAGGAUCACCCAUGUAAAACCGGUACGAGGACCGGUACGGCCGCCACUCGAAACAUGAGGAUCACCCAUGUAAUAAUAUU [Same State Trypophan A GF 21] | 0.0352 |
| AGAGUCAGACAAAAGUCUGGCUCAGCCGAAGGAGCGUCCGAAAGGACAGGUAGGUCGCGGUUACUUGAGGAUCACCCAAGUUCCU [ArgAS 26 #OpenEnded #AlternativeMS2] | 0.069 |
| GGAGUAGGAAACUAUUCCAAUCCUCGUGAACGAGGACCGGUACGGCCGCCACUCGAUAAUUAAUAACAUGAGGAUCACCCAUGUA [Ex Tryptophan A 21] | 0.0366 |
| UGUAUGGACUGAAGGAGCGGAAAAUAACCAUGAGGAUCACCCAUGGAAUAGGCGAAAGCCAUCCAGGUAGGUCGCAGUCCAUACU | 0.0234 |
| GCGGUCGGAGUGCGGCGUGUUCCGCUCCGUCGAGGACCGGUACGGCCGCCACUCGACAUGAGGAUCACCCAUGUCCGACCGCGCG [#1 Exclusion - Tryptophan A Attempt #5 (HarryS)] | 0.0184 |
| ACAUGAGGAUCACCCAUGUUCCUCGCCGAUACCAGUGAAGAAGAACGCCCUUGGCAGCGGAAAGAAUAUUUUGGAGAUGAGAUAU [6.V] | 0.0705 |
| CUCUGAGUGAGUAAUCACUCAGAGGCGGAUACCAGCGAGGUCCAUCGCCCUUGGCAGCCGAACAUGAGGAUCACCCAUGUCGGUA [#1 Same State - Theophylline A Attempt #24 (HarryS)] | 0.00882 |
| ACGAUAGGACUUGAGGAUCACCCAGGUGAUACCAGCCUGGAAACAGGCCCUUGGCAGCACUAAUACUCCAAUAACCUAUCGAAUA [TheoAX 16 #MicroSwitchBubble #AlternativeMS2] | 0.341 |
| AUUCUUUACUGAAGGAGCGUCAUUCUUACAUGAGGAUCACCCAUGUUUAUUCUUUAUGAUUGACAGGUAGGUCGCAGAUUUUUUA [#11 Same State - Arginine B] | 0.0195 |
| UCAUGCAGGUCGGCCGCCACUACACACAUGAGGAUCACCCAUGUAGUUACUGGGUGAAGUGGCAGUAGGACCGGGACCUGCACAU [Brourdmod16] | 0.253 |
| GGUAUGUAUUCGGAAACGAAUGCAUACCAACGAGGACCGGUACGGCCGCCACUCGCCGUCCUCAAACAUGAGGAUCACCCAUGUA [Ex Tryptophan A 7] | 0.0195 |
| AGUCCUCUGUACCCUGAUGCCCUCACUUUACGAGGACCGGUACGGCCGCCACUCGAAUCCCAACAUGAGGAUCACCCAUGUCGAC [theeternabot_exclusion_MS2_Trp_A_26] | 0.03 |
| AGUGUUAUAACUGAUACCAGACUUUUGCUUAUACAUGAGGAUCACCCAUGUAAAAUGGUUGUCCCUUGGCAGCAGAAGUUACACA [JR_SSTheophyB_Sub008] | 0.104 |
| UAAAACAUGAGGAUCACCCAUGUAAUUGAUACCAGAGUGAUGAUCCUCCCUUGGCAGCAAAUAACGCAUUGAUUACAAUGCGAAA [Mat - Same State Theophlline A - Mod of Eli - D27] | 0.0279 |
| UAUAUAUAUAUUGAUACCAGCAGAGAAAACGUUUAUCCUAACAUGAGGAUCACCCAUGUAUGCCCUUGGCAGCGAUAUAUAUAUA [8.C] | 0.0222 |
